Assay results taken from patent US20240392020A1 (JIANGSU HENGRUI PHARMACEUTICALS, published 2024).
Residue numbers refer to the chain shown, from its start. Read-outs that look alike come from different tables or passages of the source.

Columns and labels:
CEA on MKN45 cells = biological target: T1, CEA on MKN45 cells (UniProt P06731 35-685); test: FACS, MKN45 cells
T1 construct: whole, on cells
T1 sequence (looked up): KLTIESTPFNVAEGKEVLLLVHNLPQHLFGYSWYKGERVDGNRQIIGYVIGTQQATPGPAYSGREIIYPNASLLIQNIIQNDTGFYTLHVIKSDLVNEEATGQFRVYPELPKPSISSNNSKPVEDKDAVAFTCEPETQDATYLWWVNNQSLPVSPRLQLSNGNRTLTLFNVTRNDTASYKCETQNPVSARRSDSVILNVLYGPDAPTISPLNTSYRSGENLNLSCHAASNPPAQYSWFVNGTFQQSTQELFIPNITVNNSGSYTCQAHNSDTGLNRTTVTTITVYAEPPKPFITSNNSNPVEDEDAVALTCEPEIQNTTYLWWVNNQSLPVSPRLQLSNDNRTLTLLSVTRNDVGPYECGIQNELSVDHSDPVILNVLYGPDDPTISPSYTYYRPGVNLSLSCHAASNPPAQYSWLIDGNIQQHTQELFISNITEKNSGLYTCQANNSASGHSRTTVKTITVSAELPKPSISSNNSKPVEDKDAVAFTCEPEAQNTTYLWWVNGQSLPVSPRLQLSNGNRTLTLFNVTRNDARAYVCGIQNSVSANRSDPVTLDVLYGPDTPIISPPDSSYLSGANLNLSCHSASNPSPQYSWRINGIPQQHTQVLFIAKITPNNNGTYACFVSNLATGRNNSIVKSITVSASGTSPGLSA

hBAFF = biological target: T2, hBAFF (human, UniProt Q9Y275 134-285); test: ELISA
T2 construct: bought
Experimental: (§1) For an antibody targeting a soluble protein, the binding activity of the antibody against the soluble protein was detected by ELISA. […] After the blocking was completed, the blocking solution was discarded; and the plate was washed 3 times with a PBST buffer (pH 7.4, PBS containing 0.1% tween-20). 100 μL of the antibody solution diluted in a gradient was added to each well, and the mixture was incubated at 37° C. for 1 h. After the incubation was completed, the plate was washed 3 times with PBST. […] The plate was washed 3 times with PBST. […] The reaction was stopped by adding 50 μL of 1 M H₂SO₄ to each well. The absorbance values at 450 nm were read on a microplate reader, the binding curves of the antibodies to an antigen were fitted with software, and the EC₅₀ values were calculated.

hIL-5 [1] = biological target: T3, hIL-5 (human, UniProt P05113 20-134); test: ELISA
T3 construct: bought
Experimental: as §1

hIL-5 [2] = biological target: T3, hIL-5; test: ELISA; remark: listed apart in the source
Experimental: as §1

hIL-5 [3] = biological target: T3, hIL-5; test: ELISA; remark: listed apart in the source
Experimental: as §1

B1: N0 (antibody, human IgG1, kappa)
heavy: not shown
light: EIVLTQSPGTLSLSPGERATLSCRASQNINNRFLAWYQQRPGQAPRLLIYAASSRATGVPDRFSGSGSGTDFTLTISRLEAEDFAMYHCQQYGSFPRTFGQGTMVDIKRTVAAPSVFIFPPSDEQLKSGTASVVCLLNNFYPREAKVQWKVDNALQSGNSQESVTEQDSKDSTYSLSSTLTLSKADYEKHKVYACEVTHQGLSSPVTKSFNRGEC
An EC50 (CEA on MKN45 cells) of 0.82 nM was found for B1 in this work.

B2: N2 (antibody)
heavy: not shown
light: EIVLTQSPGTLSLSPGERATLSCRASQNINNRFLAWYQQRPGQAPRLLIYAASSRATGVPDRFSGSGSGTDFTLTISRLEAEDFAMYHCQQYGSFPRTFGQGTMVDIKFDPVYKVKPNPPHNLSVINSEELSSILKLTWTNPSIKSVIILKYNIQYRTKDASTWSQIPPEDTASTRSSFTVQDLKPFTEYVFRIRCMKEDGKGYWSDWSEEASGIT
An EC50 (CEA on MKN45 cells) of 766 nM was found for B2 in this work.

B3: B7 (antibody)
heavy: not shown
light: SSELTQDPAVSVALGQTVRVTCQGDSLRSYYASWYQQKPGQAPVLVIYGKNNRPSGIPDRFSGSSSGNTASLTITGAQAEDEADYYCSSRDSSGNHWVFGGGTELTVLSGAPRFLTRPLAFVVSVGKDATLSSQIVGNPTPQVSWEKDQLPVTAGARFRLAQDGDLYRLKILDLTLSDSGQYVSRARNAIGEAFACVGLEVGAEA
An EC50 (hBAFF) of 0.35 nM was found for B3 in this work.

B4: B4 (antibody)
heavy: not shown
light: B3 light with Q149K, L150Q, T175Q, V197L, E200Q, G202D
An EC50 (hBAFF) of 0.25 nM was found for B4 in this work.

B5: B8 (antibody)
heavy: not shown
light: B3 light with A120S, F121Y, T130S, T175Q
An EC50 (hBAFF) of 0.16 nM was found for B5 in this work.

B6: B1 (antibody)
heavy: not shown
light: B3 light with L150Q, T153A, T175A, S177G, E200Q, G202D
An EC50 (hBAFF) of 0.28 nM was found for B6 in this work.

B7: B5 (antibody)
heavy: not shown
light: B3 light
An EC50 (hBAFF) of 0.29 nM was found for B7 in this work.

B8: B6 (antibody)
heavy: not shown
light: B3 light
An EC50 (hBAFF) of 0.19 nM was found for B8 in this work.

B9: R19 (antibody)
heavy: not shown
light: DIQMTQSPSSLSASVGDRVTITCLASEGISSYLAWYQQKPGKAPKLLIYGANSLQTGVPSRFSGSGSATDYTLTISSLQPEDFATYYCQQSYKFPNTFGQGTKVEVKDQPQFSGAPRFKTRPKAFVVSVGKDATLSSQIVGNPTPQVSWEKDQQPVAAGARFRLAQDGDLYRLKILDLALGDSGQYVSRARNAIGEAFACVGLQVDAEA
An EC50 (hIL-5 [1]) of 0.36 nM was found for B9 in this work.

B10: R22 (antibody)
heavy: not shown
light: B9 light with K119R, K174H
An EC50 (hIL-5 [1]) of 0.39 nM was found for B10 in this work.

B11: R20 (antibody)
heavy: not shown
light: B9 light with K174H
An EC50 (hIL-5 [1]) of 0.39 nM was found for B11 in this work.

B12: R21 (antibody)
heavy: not shown
light: B9 light with K119R
An EC50 (hIL-5 [1]) of 0.37 nM was found for B12 in this work.

B13: R18 (antibody)
heavy: not shown
light: B9 light with K119L, K174T
An EC50 (hIL-5 [1]) of 0.44 nM was found for B13 in this work.

B14: H4 (antibody)
heavy: not shown
light: DIQMTQSPSSVSASVGDRVTITCRASQDIANYLSWYQQKPGKSPKLLIYGTSNLEVGVPSRFSGSRSGTDFTLTISSLQPEDFATYYCLQDKEFPRTFGGGTKVEIKQGSPPCFLRFPRPVRVVSGAEAELKCVVLGEPPPVVVWEKGGQQLAASERLSFPADGAEHGLLLTAALPTDAGVYVCRARNAAGEAYAAAAVTVLEPP
An EC50 (hIL-5 [2]) of 2.7 nM and an EC50 (hIL-5 [3]) of 3.28 nM were found for B14 in this work.

B15: N5 (antibody)
heavy: not shown
light: EIVLTQSPGTLSLSPGERATLSCRASQNINNRFLAWYQQRPGQAPRLLIYAASSRATGVPDRFSGSGSGTDFTLTISRLEAEDFAMYHCQQYGSFPRTFGQGTMVDIKGIPPKIEALPSDISIDEGKVLTVACAFTGEPTPEVTWSCGGRKIHSQEQGRFHIENTDDLTTLIIMDVQKQDGGLYTLSLGNEFGSDSATVNIHIRSI
An EC50 (CEA on MKN45 cells) of 5.24 nM was found for B15 in this work.

B16: H3 (antibody)
heavy: not shown
light: DIQMTQSPSSVSASVGDRVTITCRASQDIANYLSWYQQKPGKSPKLLIYGTSNLEVGVPSRFSGSRSGTDFTLTISSLQPEDFATYYCLQDKEFPRTFGGGTKVEIKSGAPRFLTRPKAFVVSVGKDATLSCQIVGNPTPQVSWEKDQQPVAAGARFRLAQDGDLYRLTILDLALGDSGQYVCRARNAIGEAFAAVGLQVDAEA
An EC50 (hIL-5 [2]) of 2.75 nM and an EC50 (hIL-5 [3]) of 3.24 nM were found for B16 in this work.

B17: R6 (antibody)
heavy: not shown
light: DIQMTQSPSSLSASVGDRVTITCLASEGISSYLAWYQQKPGKAPKLLIYGANSLQTGVPSRFSGSGSATDYTLTISSLQPEDFATYYCQQSYKFPNTFGQGTKVEVKQGSPPCFLRFPRPVRVVSGAEAELKCVVLGEPPPVVVWEKGGQQLAASERLSFPADGAEHGLLLTAALPTDAGVYVCRARNAAGEAYAAAAVTVLEPP
An EC50 (hIL-5 [2]) of 2.02 nM was found for B17 in this work.

B18: B3 (antibody)
heavy: not shown
light: SSELTQDPAVSVALGQTVRVTCQGDSLRSYYASWYQQKPGQAPVLVIYGKNNRPSGIPDRFSGSSSGNTASLTITGAQAEDEADYYCSSRDSSGNHWVFGGGTELTVLSEAPRFLTRPLAFVVSEGKDATLSSQIVGDPPPEVTWEKDQQPITAGARFRLAQDGDVYRLEILDLQLSDSGQYVSRARNAIGEAFACVGLQVDAEG
An EC50 (hBAFF) of 0.5 nM was found for B18 in this work.

B19: B2 (antibody)
heavy: not shown
light: SSELTQDPAVSVALGQTVRVTCQGDSLRSYYASWYQQKPGQAPVLVIYGKNNRPSGIPDRFSGSSSGNTASLTITGAQAEDEADYYCSSRDSSGNHWVFGGGTELTVLSGAPRFLTRPKSYTVSVGKDASLSSQIVGNPTPQVSWEKDQQPVAAGARFRLAQDGDLYRLKILDLALGDSGQYVSRARNAIGEAFACVGLQVDAEA
An EC50 (hBAFF) of 0.19 nM was found for B19 in this work.

B20: R3 (antibody)
heavy: not shown
light: DIQMTQSPSSLSASVGDRVTITCLASEGISSYLAWYQQKPGKAPKLLIYGANSLQTGVPSRFSGSGSATDYTLTISSLQPEDFATYYCQQSYKFPNTFGQGTKVEVKGIPPKIEALPSDISIDEGKVLTVACAFTGEPTPEVTWSCGGRKIHSQEQGRFHIENTDDLTTLIIMDVQKQDGGLYTLSLGNEFGSDSATVNIHIRSI
An EC50 (hIL-5 [2]) of 1.58 nM was found for B20 in this work.

B21: R4 (antibody)
heavy: not shown
light: B20 light
An EC50 (hIL-5 [2]) of 1.67 nM was found for B21 in this work.

B22: N1 (antibody)
heavy: not shown
light: EIVLTQSPGTLSLSPGERATLSCRASQNINNRFLAWYQQRPGQAPRLLIYAASSRATGVPDRFSGSGSGTDFTLTISRLEAEDFAMYHCQQYGSFPRTFGQGTMVDIKGILQPDPPANITVTAVARNPRWLSVTWQDPHSWNSSFYRLRFELRYRAERSKTFTTWMVKDLQHHCVIHDAWSGLRHVVQLRAQEEFGQGEWSEWSPEAMGTPW
An EC50 (CEA on MKN45 cells) of 1230 nM was found for B22 in this work.

B23: R5 (antibody)
heavy: not shown
light: DIQMTQSPSSLSASVGDRVTITCLASEGISSYLAWYQQKPGKAPKLLIYGANSLQTGVPSRFSGSGSATDYTLTISSLQPEDFATYYCQQSYKFPNTFGQGTKVEVKSGAPRFLTRPKAFVVSVGKDATLSCQIVGNPTPQVSWEKDQQPVAAGARFRLAQDGDLYRLTILDLALGDSGQYVCRARNAIGEAFAAVGLQVDAEA
An EC50 (hIL-5 [2]) of 1.59 nM and an EC50 (hIL-5 [3]) of 4.13 nM were found for B23 in this work.

B24: R13 (antibody)
heavy: not shown
light: B23 light with C132S, C183S, A195C
An EC50 (hIL-5 [1]) of 0.4 nM was found for B24 in this work.

B25: R16 (antibody)
heavy: not shown
light: B23 light with K118L, C132S, T169K, C183S, A195C
An EC50 (hIL-5 [1]) of 0.33 nM was found for B25 in this work.

B26: R10 (antibody)
heavy: not shown
light: B23 light with C132S, C183S, A195C
An EC50 (hIL-5 [3]) of 3.2 nM and an EC50 (hIL-5 [1]) of 0.37 nM were found for B26 in this work.

B27: R17 (antibody)
heavy: not shown
light: B23 light with K118L, C132S, T169H, C183S, A195C
An EC50 (hIL-5 [1]) of 0.4 nM was found for B27 in this work.

B28: R14 (antibody)
heavy: not shown
light: B23 light with L114K, C132S, T169K, C183S, A195C
An EC50 (hIL-5 [1]) of 0.2 nM was found for B28 in this work.

B29: R15 (antibody)
heavy: not shown
light: B23 light with L114K, C132S, T169H, C183S, A195C
An EC50 (hIL-5 [1]) of 0.3 nM was found for B29 in this work.
